{"source": "paper PMC2650229", "origin": "cited, not measured here", "biological_target": "ERp57 b' domain (Homo sapiens) (UniProt P30101)", "sequence (P30101 241-360)": "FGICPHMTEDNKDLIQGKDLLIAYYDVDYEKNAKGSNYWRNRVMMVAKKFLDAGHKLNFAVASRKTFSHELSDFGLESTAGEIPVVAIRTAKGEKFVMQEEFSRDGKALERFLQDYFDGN", "data": [{"substance": "calreticulin P-domain (from UniProt P27797)", "values": [{"measurement": "Kd", "value": 2600, "unit": "nM"}]}]}
